Key:
[1] = biological target: bovine myelin basic protein (bovine) (UniProt P02687)
ETE peptide = biological target: T1, ETE peptide
T1 sequence (peptide): RRREEETEEE

Syntide-2 = biological target: T2, Syntide-2
T2 sequence (peptide): PLARTLSVAGLPGKK

Band-3 peptide = biological target: T3, Band-3 peptide
T3 sequence (peptide): MEELQDDYEDDMEERR

[2] = biological target: Heat-denatured ERK2 (Rattus norvegicus (Rat)) (UniProt P63086)
RR-SRC peptide = biological target: T4, RR-SRC peptide
T4 sequence (peptide): RRLIEDAEYAARG

S6 peptide = biological target: T5, S6 peptide
T5 sequence (peptide): RRLSSLRA

TEY peptide = biological target: T6, TEY peptide
T6 sequence (peptide): PEHDHTGFLTEYVATRWYR

[3] = biological target: Recombinant ERK2 expressed in E. coli (Rattus norvegicus (Rat)) (UniProt P63086)

Sequence of bovine myelin basic protein (bovine) (P02687 whole entry): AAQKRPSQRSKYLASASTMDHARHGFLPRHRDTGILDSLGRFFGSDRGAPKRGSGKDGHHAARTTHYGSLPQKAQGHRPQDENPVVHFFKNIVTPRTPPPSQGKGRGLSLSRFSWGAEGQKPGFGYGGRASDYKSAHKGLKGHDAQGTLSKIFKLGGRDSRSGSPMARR

B1: MAPK activator 2 (MAPKK1b), 45 kDa polypeptide purified from EGF-stimulated A431 cells (enzyme)
chain: MPKKKPTPIQLNPAPDGSAVNGTSSAETNLEALQKKLEELELDEQQRKRLEAFLTQKQKVGELKDDDFEKISELGAGNGGVVFKVSHKPSGLVMARKLIHLEIKPAIRNQIIRELQVLHECNSPYIVGFYGAFYSDGEISICMEHMVIKGLTYLREKHKIMHRDVKPSNILVNSRGEIKLCDFGVSGQLIDSMANSFVGTRSYMSPERLQGTHYSVQSDIWSMGLSLVEMAVGRYPIPPPDAKELELMFGCQVEGDAAETPPRPRTTPGRPLSSYGMDSRPPMAIFQLLDYIVNEPPPKLPSGVFSLEFQDFVNKCLIKNPAERADLKQLMVHAFIKRSDAEEVDFAGWLCSTIGLNQPSTPTHAAGV
Phosphorylation [1]: 0.12 nmol/min/mg
Phosphorylation (ETE peptide): < 0.005 nmol/min/mg
Phosphorylation (Syntide-2): 0.04 nmol/min/mg
Phosphorylation (Band-3 peptide): < 0.005 nmol/min/mg
Phosphorylation [2]: < 0.005 nmol/min/mg
Phosphorylation (Protamine): 0.03 nmol/min/mg
Phosphorylation (RR-SRC peptide): 0.005 nmol/min/mg
Phosphorylation (Denatured enolase): < 0.005 nmol/min/mg
Phosphorylation (Casein): < 0.005 nmol/min/mg
Phosphorylation (S6 peptide): 0.07 nmol/min/mg
Phosphorylation (TEY peptide): 0.005 nmol/min/mg
Phosphorylation (Raf-1): < 0.01 nmol/min/mg
Phosphorylation (Kemptide): < 0.005 nmol/min/mg
Phosphorylation (Histones): 0.04 nmol/min/mg
Phosphorylation (Ribosomal S6 protein): < 0.005 nmol/min/mg
Phosphorylation [3]: 60 nmol/min/mg
Phosphorylation (poly (Glu^80 -Tyr^20)): < 0.005 nmol/min/mg
